Source: publication PMC9352719, “Interaction between transcribing RNA polymerase and topoisomerase I prevents R-loop formation in E. coli”

What was measured:
[1] = target: T1, EcTopoI (topoisomerase I) (Escherichia coli DY330, UniProt P06612 1-865); assay: competition; vs labeled Consensus R; about as efficient as Consensus R; EMSA: 10 mM Tris-HCl pH 7.5, 50 mM NaCl, 6 mM MgCl2, 37 C 10 min; MST: same plus 0.05% Tween-20, 22 C; conditions: protein: recombinant; single strand
[2] = target: T1, EcTopoI (topoisomerase I); assay: MST; 6 mM Mg2+; range for both random oligos; EMSA: 10 mM Tris-HCl pH 7.5, 50 mM NaCl, 6 mM MgCl2, 37 C 10 min; MST: same plus 0.05% Tween-20, 22 C; conditions: protein: recombinant; label: 5'-Cy5; single strand
[3] = target: T1, EcTopoI (topoisomerase I); assay: EMSA; 6 mM Mg2+; EMSA: 10 mM Tris-HCl pH 7.5, 50 mM NaCl, 6 mM MgCl2, 37 C 10 min; MST: same plus 0.05% Tween-20, 22 C; conditions: protein: recombinant; label: 5'-Cy5; single strand

T1 sequence (P06612 whole entry): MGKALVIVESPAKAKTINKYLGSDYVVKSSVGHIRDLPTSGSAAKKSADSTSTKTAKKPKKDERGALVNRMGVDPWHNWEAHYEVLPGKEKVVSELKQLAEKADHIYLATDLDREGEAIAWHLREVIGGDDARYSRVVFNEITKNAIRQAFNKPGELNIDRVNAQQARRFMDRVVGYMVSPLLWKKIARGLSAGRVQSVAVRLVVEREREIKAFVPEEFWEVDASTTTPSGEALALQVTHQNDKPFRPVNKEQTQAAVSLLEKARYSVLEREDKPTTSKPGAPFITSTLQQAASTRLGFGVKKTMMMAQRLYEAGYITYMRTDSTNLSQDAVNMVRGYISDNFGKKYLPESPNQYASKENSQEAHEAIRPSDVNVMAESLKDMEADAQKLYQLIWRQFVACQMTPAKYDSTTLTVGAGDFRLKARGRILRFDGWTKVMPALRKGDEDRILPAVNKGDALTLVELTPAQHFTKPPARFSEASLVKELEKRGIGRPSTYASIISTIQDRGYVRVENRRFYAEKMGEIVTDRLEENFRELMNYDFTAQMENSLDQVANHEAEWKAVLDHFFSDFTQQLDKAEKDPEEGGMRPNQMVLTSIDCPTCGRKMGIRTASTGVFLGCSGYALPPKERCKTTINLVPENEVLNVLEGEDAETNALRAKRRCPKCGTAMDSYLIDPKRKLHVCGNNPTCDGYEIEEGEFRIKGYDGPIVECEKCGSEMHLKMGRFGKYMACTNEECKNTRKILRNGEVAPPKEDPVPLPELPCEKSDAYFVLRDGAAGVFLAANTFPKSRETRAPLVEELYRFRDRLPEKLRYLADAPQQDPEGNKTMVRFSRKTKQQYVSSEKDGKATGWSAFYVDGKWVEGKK

Q: Does CGCAAAAAAAAAAAAAAAAAAAACGC (ssDNA) [Poly-A, unlabeled] bind [1]?
A: binds

Q: With GCGCACGTAATCCGCAGTGCGGTGCG (ssDNA) [Random F] as the binder, how does the Kd [2] read?
A: ~324 nM

Q: Which Kd [3] does the source give for CGCAAAAATAATGAAGAAAAAAACGC (ssDNA) [Consensus R] here?
A: 207 ± 76 nM

Q: How did the Kd [2] turn out when CGCTCCGCACTGCGGATTACGTGCGC (ssDNA) [Random R] was run?
A: ~324 nM

Q: For GCGTTTTTTTCTTCATTATTTTTGCG (ssDNA) [Consensus F], which Kd [3] is on record?
A: 190 ± 87 nM
